Test results: the domain aggregation screens of Martell et al. (2025)

assay: soluble fraction after stress (log2 fold change); higher = more stays soluble; pooled small domains, quantitative proteomics; conditions: stress: 50 degC
Method in brief: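 The measure of aggregation propensity here is the base-two logarithm of the fold change in the soluble amount of each protein after stress. A higher value means more of that protein stays in solution. Stress was applied at 50°C to pooled libraries of small protein domains, read out by high-throughput quantitative proteomics.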

Sequence	soluble fraction (log2)
HMSVTSEIGAKIKYFRKSKHFSLQEMADLLYKSKSTLSKYENGQISIDIETLYAIAKVLGVHVEQLLYSEP	-4.49
HMLPDHAPITMRQLAMLHVAKNKLDLTDEDYRSLLLLYGGVESSKQLNQEGLRRVLDRFKELGFEP	-0.0947
HMSTTGIVKWFNEEKGFGFITQDQGGADVFVHYRAIASEGFKTLAEGQKVSFEVEQGQKGLQAANVQA	0.0843
HMNSTNYQVIITANGGLNIRAGASTAYARIGGYAKGTVVTILAESNGFGKTDKGWISLNYTSKDLD	-3.07
HMKYSELLLEIILQSKEHPTAEQIFIEAKKRNPKIVQATVYNNLKNLLAQGRVIRISNPGQPDRYDNT	-0.401
HMFDLATVKRVAEEAGMKFTIHPVELRAAHPNTAVLTLKSKAGRILVLKAASVGGGRIRVTEIDGVPAD	-0.423
HMDAPKPDIGMSTDQIRSSLGQPGSQTRLETGGGRIYELWIYLYPDGKELQIYFDNAKVVKMEALS	-0.613
HMGTYYTEIIAQLKKEIANGTWKLGERLPGELALAKQFNVSRSSIREALKALAYAGIVESKPGRGTFLLHV	-0.875
HMSELSEVIEKTFEELPEELKLIVKLREIDDLSYDEISNKIGIPIGTVRSRLHRAREILINIIKN	-1.55
HMQPDYRVLYSNFSDKDGGAIVAALEKMNVPYKFSEGGSAILVPAGQVHQARLKLAADGLPK	0.0409
HMTGSAETRGITLTDEQVTVWAKDGSWANYVYRATDGNWYDGSGRLYYENGGGEWTQAATGEQGS	-0.0258
HMTEVPSLSSLKIGDLIFYRNNKGAIAHSAIITSFYNGRPFISQHTFNALNITYVKDWASKMHFIKIW	-0.0353
HMADLIVFTTDANKEKKVDDETYFYLDVVSDGKLVENYELTEKQYNYIKDLGVGEYVYNEKGKLDSYTAFT	-0.00687
HMKAETILAIPENQPERLFPNNEDEARKIYRDLAREWHTDRNKSPKAQDVFSHLSKLYDIVIDRIKNKTWT	0.152
HMSTPVPIEGQPTENLNLRDQPSTSGKILTTIPKGKTVTILSEKNANGWYKVSYNGKTGYVSGSYFKVTK	0.317
HMWDEMKDQKLVEALLLLREDERKLIYQHVFEERTFDDISRINGLPPYKVKGIYYYAIRKIRKWMG	-1.51
HMQPQYSVLFSNIEEKDGGSIITLLQQGNVPYKVENGGTTILVPANRANELRLTLAAQGLPK	-0.0124
HMNTGLSEREHEIAQLVLQGRTYAEIGAELFISPRTAEHHIGQIRRRLAATSRSDLLAKLRVAMNTTEGAG	-1.27
HMTYKHLTIDEMKRFLSTREDSQSALVQFARVENVVGNRKGKYAVIKKWFLKNYKEEYNAFLS	-0.17
HMEPPPSYSALLKQISSGKVKELQLVPARREVIVTYPDGRSATVAILANDQQILRTAEAAGTPLLVK	0.207
HMSSSDYDVYNKAINLMLNLLKEPKSIEEVTASLNITKSQAITWINRALNEGKIIKTNRPVRYVVNN	-0.596
HMDINLGIGPLVKKYRTIKGYSIRELARNINVTASMLSQIERDIVNPSINTLKAISVELGVPMYKFFM	-2.33
HMQPQIDFEIDVEVRASSLRIVAAPNSDVLVATVGRGEHVVQLTYPKDGWVMIRTADDRVGFVPESLLL	-0.255
HMSNMWVWSKLSGIQWMDAWEDRFHGNPNTVITRLKTNKTVRVEVYTETEQEALDIKKLFGGSIRKLV	-2.96
HMNTFKNIFIQEGDLFNLKKNDNQIIFAKEGILINENKKIFRLLNGKIISTNNNRLIGFEFDKIDYNLSN	0.489

Sequence	soluble fraction (log2)
HMHKFMEQNQDRRLSRMKELIGILSEAAKTYYQESREIMSNFQYDRMYDELLELEKETGVVMAGSPTQKV	-6.44e-05
HMKNEQESIAQKLYEAALKNDFVTIQEIQSGGYRLRNDDLTHMRESGVQSNTLIAIQKIFGL	0.398
HMKMVEIDYGKFLTMLDTGKVKSVEIENNRIAINPSSSKDKNIYITGRMDDPELVDRLKNAKVEFTKVIP	0.261
HMTTGGAEELGRTERKIVEQVGRGLSNREIAQVLGLSEGTVRNYLSTILGKLGLRDRTQLAIWSVQTGFAA	0.197
HMTVSLLQTRQRLQALADLGHYKGDLGAAWGPDAIEALKKAQATLGVTVDGKWGPQTEDAIQVALKVQ	-0.284
HMQVRVERSRDKVVISGVNYYIHPVRKGETVYSIARAYGITTQDLVRENPSAAEGLKEGQSIRIPERLVD	0.0927
HMKVSVPDIMDNSSLRQAEAKLRALGFRVTEPEYISGEKDWVYSVTYKGRTLNAGDKVPHEALLTLHVGNG	-0.0697
HMSLTEESAKSLIGLTENEAVKVAAERGWTVRVAMRDGEAFMLTQDYSENRVNLTVMKTLVTAVTI	-0.273
HMHALSVKFSDEAAKTLPYDILSALRDVLALDPRPGYSRDENKIYRFEYADYNISFSVKDKTLTVLSAEK	-0.384
HMSSEMATLRSIVDNKQAEKVHGMMVDMFTASAMVQVYDKVNDENQAKMREMLKTQKGFQRMADFALSKI	-0.172
HMNVNEIREMYPEGTQIVLTEMRGENQMPYGLKGTVKFVDDAGQIHMKWENGSSLALNINEDTFEKVE	0.147
HMEPQLVKSFDVQTELTYDQFLSKYPESHTLGRLLVQPEPIPFEPYKNIPGITPEKLLALHAKHLEAR	0.0728
HMSEMVIPEDFLAALETNPQAKAFYATLNRQNQYAVYHRLQTAKRPETRAKRIADFVAQLAAGKRF	-0.355
HMEMTDKEEELMRIFWNHGPMFVREIVELYPEPRPHFNTLSTFVRNLEQKGFVSHEAVGGSFRYYAV	-1.26
HMNETTVPDVINQNISTGKIIIEDADLEYRIQYIPSEKSSSIGTIINSIPIYGKRVKSGTIVDLKVLG	-0.0142
HMNLLSPREKQSLTLYASGLTLREVASELKLSPNSVGKFISRGKFKLNKSGAIVNSKTSIYLELKKRNLI	-0.111
HMDPEIADAVNTIKKYLESHYSEVITRKKIEELVHLNQDHINREFKKQTGYTLMEYVQHYRILMAKKMLRV	-0.243
HMIHQIPVNVQKIRQIIGINLNENDYLNYLAKLGFVIDEGLIIVPSFRSDVKTQNDLAEEIARV	-0.444
HMPKRSKDEAELEFLEMLRDNQVDSTWSFGKIISQLGSTDPRYWMVDDDPLWKRQIFEKYLSNR	-0.292
HMEEYTVEFVKHKVKRKQTLYTISKLYNVSIDDIIKYNSQIEGFNLSRRMELNIPVKKTLIVKNE	-1.7
HMSGILINGELYKPGEQMSLKQRLSIQARIQMQGEDTVKPEMLKDFYNSGGPLSKEESSEYMKSQN	-0.153
HMFFDKIIVDFLADGSRIDKYISTLYPDISRTHIQRLIAEQFILVNDSVVKSNYKLSTNDVVLIHIPEA	-3.33
HMQERNYIVRRGDTLWDLAKTYYGSGTKYTVIYDANRDNIEAEAKRRGKQSSNGGYWIYPGTELTI	-0.368
HMKILVTDDNIRIDKYLTTQTEYSRSTIQKMIESNNILVNNKPTKSNYILRNNDEITIDENFNEE	-0.11
HMSKQLGFKIKTARRKLNISQGDLSKKLEISPSYLNLIESGKRKVSTDLLMKASEILNLDLKKL	-0.281

Sequence	soluble fraction (log2)
HMHPKTPDELLALMSEEQRGQIEQLAKLVLMAVSYSGASYYDAVTTMYPRMSEERRRIITHVLNTASP	-0.652
HMNQRQLQIKQMLDVAQEVFLKQLKTVFPDVSEMTIRRDLILLEDMGYAVRTHGGAVSINRF	-2.14
HMGPTLSPAEKRVFEVIPYDAILQDMVIRAAELPPGEVLAALTTLELKGLIKRLPGNLVMRRAR	0.0188
HMVKDLEIETIRLNNLLASDAEEVLKSLGGAKPTYKAVAVPGSNSLVIEGTKADLIKLKSIINALEDGS	0.0941
HMEDDRMLVWFFRKSIQNGAQSEAEGRPIFEGKDYVHIQQPGERDYIEREAHQGDIGRWPRHWQAYQEGR	-0.329
HMNTELFTKNLFNKLEVLLGEKNWKSKTAQLLNISSDAFYKKIRNESQLNLHELLLIKDTFKISIDALLDE	-1.24
HMLPVQGEEVAPGLYKFDFPFLADKRVWEKTINAFKAEHPELKVNYIYTGPDELNSKKKTHVLVYVFTES	-0.0974
HMRNEFEAHSDGTRIQLNDRSKATFSVYDVQGRLIHSFQDFSGSSFNIEPKNQLLIITRETAEGVSVKKLV	0.0942
HMLGITEGSLVRVIRSPNFGKIGTVAELPAELRMMESETMVRIAIVEIEGTNFEIPRSNLEVLET	-1.55
HMDDADPYEILGVERDAEDAEIKRAYHDLIRENHPDRLMAEGLPQEMIDVANEKVAFINDAYDRIEKLRGM	-0.241
HMDYNMEEWSLTADQLKSGDTILILNLGKTATLLESTRGKKNVRVRMGNIKTIVETSSIRGNPHQ	-0.878
HMHTADDFKQLAKQTSNGQLRTRYLALYLFKNGETRTQIATYLGVARGSVNTWVSNYLAHGLEGLQSKP	-2.65
HMKKYLTETEAAAYLNMPVEEIKAAITKGEIEQYVKTSSGYTISVEELDKFFGQKAYDTMTSNNS	0.174
HMKEIGGGPASKFIYYLIKTKHPIEQGDLIGITHLPRRTVQSAIEDLKNQGFIIERNSLDDSRRKVYYPVK	0.000762
HMEVPVQYIKFKIPENHFWAKKKVADIILPPETLLVLLQRGSDKMIPDGETVLLPEDTLVLIAKAPG	-0.0836
HMETLKINTHLGTLNLKKRGKKGTWQINIYFKNIEGDNHYRQSTGTNQLELAKAKAMNMITTEYSNRLAGI	-1.69
HMARAESYGDIARLEQLLDEHANIAALDPGKLPAVRQQIWTLMRAARMDHDLGLAERPEDDSFDDMLLHV	0.133
HMINLNEVLANFQKSYPNLAGFKYDQGMDALVYEGNYIRLNGYMLSRINPTLFSMSPDDIFTYLKNGF	-2.53
HMDSGINVWASAEGLTITADKDTTVYVYDIYGRTIHTSEVKAGTSDIAINTKGIVIVKANGYTKKII	-1
HMPLLKIGAQGHDVRVVQEALQRAGYAIEGVTGIFDEATREAVLAFQRDQQLTESGTVDRATWHALRR	0.134
HMVHSEDLQDHKYVSQLGEVFLKENPNYENIKKSWGDHMVVIKKFGRYPHRNKILNRKSTPEELEFLKG	-0.0131
HMSDLLYAHPTEKGFQLVNVTQKVVMVILKTAAPNVYTVKGKNAIVFKEGNSWFYSENHNKKLLNIK	-1.13
HMSDTSELESIIAQIIEDNPKSIEDIGAGNQKAYGFLTGQVMKATKGQANPQVANKIIRELVARKLE	0.575
HMAASEAESIRILLSEGVDRVHLRKPQSAEADMRRLIEALPPELYPRLTLQDHLHLAGEYGT	0.0186
HMSYDAINGYEPSDLRGSLTLEQTASMLNLPLTDVYARLGLPANYPSGATLKDGAADMGMGLSDFKHQLF	-0.0605
